Reference: publication PMC3229523, “Identification of Lactoferricin B Intracellular Targets Using an Escherichia coli Proteome Chip” (PLoS ONE, 2011)
Ends that are not written are not given here. * marks the point of attachment. Biotin = O=C1N[C@H]2[C@H](CS[C@H]2CCCCC(=O)*)N1

Legend:
Assay in all cases: peptide or protein array; E. coli proteome chip: purified His-tagged proteins printed in duplicate on Fullmoon slides, blocked with 1% BSA; 10 nM N-terminal biotinylated LfcinB with 1% BSA, room temperature, 1 h; detected with DyLight 649-labeled streptavidin, ratio to DyLight 549-labeled anti-His antibody; ProCAT normalisation, local cut-off; triplicate chips
Conditions in all cases: both partners purified
[1] = molecular target: T1, YfbR (E. coli K-12, UniProt P76491 1-199)
T1 construct: YfbR, E. coli K-12
T1 sequence (looked up): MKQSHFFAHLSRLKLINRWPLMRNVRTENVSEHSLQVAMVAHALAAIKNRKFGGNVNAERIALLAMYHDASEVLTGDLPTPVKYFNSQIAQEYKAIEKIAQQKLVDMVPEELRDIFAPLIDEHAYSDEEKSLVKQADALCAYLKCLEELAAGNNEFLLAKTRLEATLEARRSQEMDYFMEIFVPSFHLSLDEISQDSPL

[2] = molecular target: T2, YbgE (E. coli K-12, UniProt P0AAV0 1-97)
T2 construct: YbgE, E. coli K-12
T2 sequence (looked up): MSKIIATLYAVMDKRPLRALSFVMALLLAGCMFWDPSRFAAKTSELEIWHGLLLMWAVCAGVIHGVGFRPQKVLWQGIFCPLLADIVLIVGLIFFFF

[3] = molecular target: T3, PaaG (E. coli K-12, UniProt P77467 1-262)
T3 construct: PaaG, E. coli K-12
T3 sequence (looked up): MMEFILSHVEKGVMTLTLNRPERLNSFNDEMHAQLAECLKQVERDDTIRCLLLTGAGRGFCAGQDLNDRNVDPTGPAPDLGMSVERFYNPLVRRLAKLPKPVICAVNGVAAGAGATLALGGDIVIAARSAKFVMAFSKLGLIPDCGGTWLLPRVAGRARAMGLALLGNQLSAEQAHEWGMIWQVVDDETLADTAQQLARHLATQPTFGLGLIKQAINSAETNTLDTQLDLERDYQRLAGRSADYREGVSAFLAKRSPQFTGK

[4] = molecular target: T4, YbeQ (E. coli K-12, UniProt P77234 1-325)
T4 construct: YbeQ, E. coli K-12
T4 sequence (looked up): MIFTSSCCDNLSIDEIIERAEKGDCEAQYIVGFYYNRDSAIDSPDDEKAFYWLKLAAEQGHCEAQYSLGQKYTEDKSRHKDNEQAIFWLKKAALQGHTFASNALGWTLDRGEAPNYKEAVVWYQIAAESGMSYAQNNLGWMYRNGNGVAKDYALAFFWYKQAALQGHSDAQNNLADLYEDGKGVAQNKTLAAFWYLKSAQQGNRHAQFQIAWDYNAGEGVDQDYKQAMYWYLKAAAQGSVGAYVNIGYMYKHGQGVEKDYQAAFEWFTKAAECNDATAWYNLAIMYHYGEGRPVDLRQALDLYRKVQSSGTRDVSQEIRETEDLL

[5] = molecular target: T5, YhdG (E. coli K-12, UniProt P0ABT5 1-321)
T5 construct: YhdG, E. coli K-12
T5 sequence (looked up): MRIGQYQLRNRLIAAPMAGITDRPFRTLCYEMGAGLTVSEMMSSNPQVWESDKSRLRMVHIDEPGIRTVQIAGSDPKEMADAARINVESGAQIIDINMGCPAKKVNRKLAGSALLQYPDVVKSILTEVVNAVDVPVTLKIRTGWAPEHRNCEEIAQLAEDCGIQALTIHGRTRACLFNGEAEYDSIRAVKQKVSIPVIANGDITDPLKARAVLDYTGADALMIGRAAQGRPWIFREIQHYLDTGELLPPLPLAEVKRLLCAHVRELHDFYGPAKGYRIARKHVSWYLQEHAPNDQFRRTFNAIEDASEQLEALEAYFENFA

[6] = molecular target: T6, Smg (E. coli K-12, UniProt P0A828 1-157)
T6 construct: Smg, E. coli K-12
T6 sequence (looked up): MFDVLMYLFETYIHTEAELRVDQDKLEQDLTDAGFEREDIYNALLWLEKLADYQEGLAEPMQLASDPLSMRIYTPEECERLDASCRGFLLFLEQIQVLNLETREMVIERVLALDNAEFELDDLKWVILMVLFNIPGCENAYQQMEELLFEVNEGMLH

Measured: binding result

B1: N-terminal biotinylated Lactoferricin B (peptide, UniProt P24627 36-60, looked up)
peptide: Biotin-FKCRRWQWRMKKLGAPSITCVRRAF
modifications: ends and bridges not checked
notes: lactoferricin B (LfcinB), cationic antimicrobial peptide of 25 amino acids; also called biotinylated LfcinB; biotin-labeled LfcinB; source: bought: Kelowna Inc
binds: all assays above
